Data on 30 sequences can be found in the nanobody polyreactivity screen of Harvey et al. (2022).

A short description of this series: yeast display, Sf9 membrane polyspecificity reagent, FACS + sequencing; frameworks hold sequencing errors. Summed up:
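Galactose induction of a Saccharomyces cerevisiae BJ5465 synthetic nanobody display library ran 36–48 hours. The cells were then stained for 1 hour at 4 °C with 10% biotinylated, detergent-solubilized Sf9 membrane reagent, pulled down on streptavidin microbeads and FACS-sorted into low and high (top ~1%) gates on expression and reagent-binding fluorescence. Labels for polyreactivity follow the gate of origin.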
Take “QVQLVESGGGLVQAGGSLRLSCAASGRIFWRYAMGWYRQAPGKERELVAAITGRTGSTNYADSVKGRFTISRDNAKNTVYLQMNSLKPEDTAVYYCAAAHHRWTGLYPSGYEFDYWGQGTQVTVSS”: the “polyreactivity (PSR sort gate)” value was “low polyreactivity”.

For “QVQLVESGGGLVQAGGSLRLSCAASGRIFWSNAMGWYRQAPGKERELVAAIRWSGGSTYYADSVKGRCTISRDNAKTTVYLQMNSLKPEDTAVYYCAASPYWSDWTKVDSWGQGTQVTVSS”, the “polyreactivity (PSR sort gate)” value is “low polyreactivity”.

Turning to “QVQLVESGGGLVQAGGSLRLSCAASGRIFWSYDMGWYRQAPGKERELVASITSDGSTNYADSVKGRFTISRDNAKNTVYLQMNSLKPEDTAVYYCAARPYQYDPFAQGDGGKYDYWGQGTQVTVSS”, the “polyreactivity (PSR sort gate)” value is “low polyreactivity”.

With “QVQLVESGGGLVQAGGSLRLSCAASGRIFWTNDMGWYSKAPGKERELVAGITWRGGSTYYADSVKGRFTISRDNAKNTVYLQMNSLKPEDTAVYYCATRYRRVYTWYDYWGQGTQVTVSS”, the “polyreactivity (PSR sort gate)” value is “high polyreactivity”.

In the case of “QVQLVESGGGLVQAGGSLRLSCAASGRIFWTYAMGWYRQAPGKERELVAAITSGGSTYYADSVKGRVTISRDNAKNTVYLLMNSLKPEDTAVYYCAATSYYYNFMEHDYWGQGTQVTVSS”, the “polyreactivity (PSR sort gate)” value is listed as “high polyreactivity”.

With “QVQLVESGGGLVQAGGSLRLSCAASGRIFWWYAMGWYRQAPGKERELVASISSRGTSTYYADSVKGRFTISRDNAKHTVYLQMNSLKPEDTAFYYCAARRPGRTSQDRYKYDYWGQGTQVTVSS”, the “polyreactivity (PSR sort gate)” value is “high polyreactivity”.

In the case of “QVQLVESGGGLVQAGGSLRLSCAASGRIFWYNALGWYRQAPGKEREVVAAISWRGSRTYYADSVKGRFTISRDNAKNTVYLQMNSLKPEETAVYYCAAVIKWTKDDYWGQGTQVTVSS”, the “polyreactivity (PSR sort gate)” value is reported as “high polyreactivity”.

“QVQLVESGGGLVQAGGSLRLSCAASGRIFWYYAIGWYRQAPGKEREIVAAISRSGGTTYYADSVKGRFTISRDNAKNTVYLQMNSLKPEDTAVYYCAAVYHAYTGYEAWYEYDYWGQGTQVTVSS”: the “polyreactivity (PSR sort gate)” value was “high polyreactivity”.

Regarding “QVQLVESGGGLVQAGGSLRLSCAASGRIFWYYAMGWYRQAAGKERELVAAISSGTTKYADSVKGRFTISRDNAKNTVYLQMNSLKPEDTAVYYCNAAAYYPTNYGGYLFEYWGQGTQVTVSS”, the “polyreactivity (PSR sort gate)” value is “low polyreactivity”.

In the case of “QVQLVESGGGLVQAGGSLRLSCAASGRIFWYYAMGWYRQAPGKERELVADISTGGSTNYADSVKGRFTISRDNAKNTVYLQMNSLKPEDTAVYYCATTVPVILYVTPSTYAVVGYEYWGQGTQVTVSS”, the “polyreactivity (PSR sort gate)” value is on record as “low polyreactivity”.

Take “QVQLVESGGGLVQAGGSLRLSCAASGRIFWYYAMGWYRQAPGKERELVATISYGGGNTYYADSVKGRFTISRDNAKNTVYLQMNSLKPEDTAVYDCARVPYAYLPYKPFQQYSYDYWGQGTQVTVSS”: the “polyreactivity (PSR sort gate)” value is reported as “high polyreactivity”.

For “QVQLVESGGGLVQAGGSLRLSCAASGRIFWYYNMGRYRQAPGKERELVASINSDTGTYYADSVKGRFTISRDNAKNTVYLQMNSLKPEDTAVYYCTRDSESDANTFTTSGIDEPYDYWGQGTQVTVSS”, the “polyreactivity (PSR sort gate)” value is “low polyreactivity”.

For the sequence “QVQLVESGGGLVQAGGSLRLSCAASGRIFYANAMGWYRQAPGKERELVAAISSGGSTYYADSVKGRFTISRDNANNTVYLQMNSLKPEDTAVYYFAASTVGQTFSYYVDTYDYWGQGTQVTVSS”, the “polyreactivity (PSR sort gate)” value is on record as “low polyreactivity”.

In the case of “QVQLVESGGGLVQAGGSLRLSCAASGRIFYANAMGWYRQAPGKERELVAGISSGGITNYADSVKGRFTISRDNAKNTVYLQMNSLKPEDTAVYYCAVESWNRWRNRNDYWGQGSQVTVSS”, the “polyreactivity (PSR sort gate)” value was “low polyreactivity”.

“QVQLVESGGGLVQAGGSLRLSCAASGRIFYAYAMGLYRQAPGKERELVAAITWSGGSTYYADSVKGRFTISRDNAKNTVYLQMNSLKQEDTAVYYCAADLRVKYVHTYSYVWYRYDYWGQGTQVTVSS”: the “polyreactivity (PSR sort gate)” value was “high polyreactivity”.

On to “QVQLVESGGGLVQAGGSLRLSCAASGRIFYAYAMGWYRQAPGKERVFVAAISKRGGSTYYADSVKGRFTISRDNAKNTVYLQMNSRKPEDTAVYYCAADHEAIVRYDYWGQGTQVTVSS”, for which the “polyreactivity (PSR sort gate)” value is reported as “low polyreactivity”.

Take “QVQLVESGGGLVQAGGSLRLSCAASGRIFYDNAMGWYRQAPGKERELVAAISYSGDSTYYADSVKGRFTISRDNAKNTVYLQMNSLKPEDTAVYYCAAVYISQGAFAYDYWGQGTQVTVSS”: the “polyreactivity (PSR sort gate)” value is on record as “low polyreactivity”.

“QVQLVESGGGLVQAGGSLRLSCAASGRIFYDYAMGWYRQAPGKERELVAAISGSGGSTYYADSVKGRFTISRDKAKNTVYLQMNSLQPEDTEVYYCNRYTTRYYPGGDYWGHGTQVTVSS”: the “polyreactivity (PSR sort gate)” value was “high polyreactivity”.

In the case of “QVQLVESGGGLVQAGGSLRLSCAASGRIFYEYAMGWYRQAPGKERELVAISTSGGNTYYADSVKGRFTISRDNAKNTVYLQMNSLKPEDTAVYYCAARLQYYPYYYWGQGTQVTVSS”, the “polyreactivity (PSR sort gate)” value was “high polyreactivity”.

“QVQLVESGGGLVQAGGSLRLSCAASGRIFYEYASGWYRQAPGKERELVAISTSGGNTYYADSVKGRFTISRDNAKNTVYLQMNSLKPDDTAVYYCAARLQYYPYYYWGQGTQVTVSS”: the “polyreactivity (PSR sort gate)” value is “high polyreactivity”.

“QVQLVESGGGLVQAGGSLRLSCAASGRIFYFNAMGWYRQAPGKERELVAAISGSGGDTYYADSVKGRFTISRDNAKNTVYLQMNSLNPEDTAVYYCAAEVYTWGQGTQVTVSS”: the “polyreactivity (PSR sort gate)” value was “low polyreactivity”.

Regarding “QVQLVESGGGLVQAGGSLRLSCAASGRIFYFYAMGWYRQAPGKEREFVATISYTGGSRYYSDSVKGRFTISRDIAKNTVYLQMNSLKPEDTAVYYCAVRGWYPGFRYDYWGQGTQVTVSS”, the “polyreactivity (PSR sort gate)” value was “low polyreactivity”.

As to “QVQLVESGGGLVQAGGSLRLSCAASGRIFYFYAMGWYRQAPGKERELVAGITRSGDSTYADSVKGRFTISRDNAKNTVYLQMNSLKPEDTAVYYCAADFPWSTKSCHPDSGDSWGQGTQVTVSS”, the “polyreactivity (PSR sort gate)” value is given as “low polyreactivity”.

Consider “QVQLVESGGGLVQAGGSLRLSCAASGRIFYFYAMGWYRQAPGKETELVAAISTSGGSTYYADSVKGRFTISRDNEKNTVYLQMNSLKPEYTAVYYCAARFRYYGSEYDYWGQGTQVTVSS”, for which the “polyreactivity (PSR sort gate)” value is on record as “low polyreactivity”.

As for “QVQLVESGGGLVQAGGSLRLSCAASGRIFYGNAMGWYRQAPGKERELVAAISSGGGSTYYADSVKGRFTISRDNAKNTVYLQMNSLKPEDTAVYYCAADPVHRFPGTGGYWGQGTQVTVSS”, the “polyreactivity (PSR sort gate)” value is on record as “low polyreactivity”.

For “QVQLVESGGGLVQAGGSLRLSCAASGRIFYGNAMGWYRQAPGKERELVAAISSGTSTNYADSVKGLFTISRDNAKNTVYLQMHCLKPVDTAVYYCAAGSYSLYLYSLYFDFDYWGQGTQVTVSS”, the “polyreactivity (PSR sort gate)” value is recorded as “low polyreactivity”.

As to “QVQLVESGGGLVQAGGSLRLSCAASGRIFYGNAMGWYRQAPGKERELVAAISSGTTTNYADSVKGRFTISRDNAKNTVYLQMNSLKPEDTAVYYCAAGSYSRYLYSLYFDFDYWGQGTQVTVSS”, the “polyreactivity (PSR sort gate)” value is “low polyreactivity”.

Take “QVQLVESGGGLVQAGGSLRLSCAASGRIFYGNAMGWYRQAPGKERELVASITSSGSTKYADSVKGRFTISRDNAKNTVYLQMNSLKPEDTAVYYCAASYTKRYDTYAGYDYWGQGTQVTVSS”: the “polyreactivity (PSR sort gate)” value is “low polyreactivity”.

With “QVQLVESGGGLVQAGGSLRLSCAASGRIFYGNAMGWYRQAPGKESELVASITSSGSTKYADSVKGRFTISRDNAKNTVYLQMYSLKPVDTAVYYCAASSTKRYDTYAGYDYWGQGTQVTVSS”, the “polyreactivity (PSR sort gate)” value is recorded as “low polyreactivity”.

On to “QVQLVESGGGLVQAGGSLRLSCAASGRIFYGNAMGWYRQAPGKVRELVAAISSGTSTNYADSVKGRFTISRDNAKNPVYLQMNSLKPEDTAVYYCAAGSYSRYLYSLYFDFDYWGQGTQVTVSS”, for which the “polyreactivity (PSR sort gate)” value is on record as “low polyreactivity”.
